# Laboratory results reported in IntAct's records for PubMed 20417604.
# B1: Ataxin-1 (Homo sapiens), P54253 (parent)
# chain: MKSNQERSNECLPPKKREIPATSRSSEEKAPTLPSDNHRVEGTAWLPGNPGGRGHGGGRHGPAGTSVELGLQQGIGLHKALSTGLDYSPPSAPRSVPVATTLPAAYATPQPGTPVSPVQYAHLPHTFQFIGSSQYSGTYASFIPSQLIPPTANPVTSAVASAAGATTPSQRSQLEAYSTLLANMGSLSQTPGHKAEQQQQQQQQQQQQHQHQQQQQQQQQQQQQQHLSRAPGLITPGSPPPAQQNQYVHISSSPQNTGRTASPPAIPVHLHPHQTMIPHTLTLGPPSQVVMQYADSGSHFVPREATKKAESSRLQQAIQAKEVLNGEMEKSRRYGAPSSADLGLGKAGGKSVPHPYESRHVVVHPSPSDYSSRDPSGVRASVMVLPNSNTPAADLEVQQATHREASPSTLNDKSGLHLGKPGHRSYALSPHTVIQTTHSASEPLPVGLPATAFYAGTQPPVIGYLSGQQQAITYAGSLPQHLVIPGTQPLLIPVGSTDMEASGAAPAIVTSSPQFAAVPHTFVTTALPKSENFNPEALVTQAAYPAMVQAQIHLPVVQSVASPAAAPPTLPPYFMKGSIIQLANGELKKVEDLKTEDFIQSAEISNDLKIDSSTVERIEDSHSPGVAVIQFAVGEHRAQVSVEVLVEYPFFVFGQGWSSCCPERTSQLFDLPCSKLSVGDVCISLTLKNLKNGSVKKGQPVDPASVLLKHSKADGLAGSRHRYAEQENGINQGSAQMLSENGELKFPEKMGLPAAPFLTKIEPSKPAATRKRRWSAPESRKLEKSEDEPPLTLPKPSLIPQEVKICIEGRSNVGK
# Variants of: B1
# Settings: with wdfy3_human WDFY3, Q8IZQ1
# wdfy3_human WDFY3, Q8IZQ1, sequence (Q8IZQ1 whole entry): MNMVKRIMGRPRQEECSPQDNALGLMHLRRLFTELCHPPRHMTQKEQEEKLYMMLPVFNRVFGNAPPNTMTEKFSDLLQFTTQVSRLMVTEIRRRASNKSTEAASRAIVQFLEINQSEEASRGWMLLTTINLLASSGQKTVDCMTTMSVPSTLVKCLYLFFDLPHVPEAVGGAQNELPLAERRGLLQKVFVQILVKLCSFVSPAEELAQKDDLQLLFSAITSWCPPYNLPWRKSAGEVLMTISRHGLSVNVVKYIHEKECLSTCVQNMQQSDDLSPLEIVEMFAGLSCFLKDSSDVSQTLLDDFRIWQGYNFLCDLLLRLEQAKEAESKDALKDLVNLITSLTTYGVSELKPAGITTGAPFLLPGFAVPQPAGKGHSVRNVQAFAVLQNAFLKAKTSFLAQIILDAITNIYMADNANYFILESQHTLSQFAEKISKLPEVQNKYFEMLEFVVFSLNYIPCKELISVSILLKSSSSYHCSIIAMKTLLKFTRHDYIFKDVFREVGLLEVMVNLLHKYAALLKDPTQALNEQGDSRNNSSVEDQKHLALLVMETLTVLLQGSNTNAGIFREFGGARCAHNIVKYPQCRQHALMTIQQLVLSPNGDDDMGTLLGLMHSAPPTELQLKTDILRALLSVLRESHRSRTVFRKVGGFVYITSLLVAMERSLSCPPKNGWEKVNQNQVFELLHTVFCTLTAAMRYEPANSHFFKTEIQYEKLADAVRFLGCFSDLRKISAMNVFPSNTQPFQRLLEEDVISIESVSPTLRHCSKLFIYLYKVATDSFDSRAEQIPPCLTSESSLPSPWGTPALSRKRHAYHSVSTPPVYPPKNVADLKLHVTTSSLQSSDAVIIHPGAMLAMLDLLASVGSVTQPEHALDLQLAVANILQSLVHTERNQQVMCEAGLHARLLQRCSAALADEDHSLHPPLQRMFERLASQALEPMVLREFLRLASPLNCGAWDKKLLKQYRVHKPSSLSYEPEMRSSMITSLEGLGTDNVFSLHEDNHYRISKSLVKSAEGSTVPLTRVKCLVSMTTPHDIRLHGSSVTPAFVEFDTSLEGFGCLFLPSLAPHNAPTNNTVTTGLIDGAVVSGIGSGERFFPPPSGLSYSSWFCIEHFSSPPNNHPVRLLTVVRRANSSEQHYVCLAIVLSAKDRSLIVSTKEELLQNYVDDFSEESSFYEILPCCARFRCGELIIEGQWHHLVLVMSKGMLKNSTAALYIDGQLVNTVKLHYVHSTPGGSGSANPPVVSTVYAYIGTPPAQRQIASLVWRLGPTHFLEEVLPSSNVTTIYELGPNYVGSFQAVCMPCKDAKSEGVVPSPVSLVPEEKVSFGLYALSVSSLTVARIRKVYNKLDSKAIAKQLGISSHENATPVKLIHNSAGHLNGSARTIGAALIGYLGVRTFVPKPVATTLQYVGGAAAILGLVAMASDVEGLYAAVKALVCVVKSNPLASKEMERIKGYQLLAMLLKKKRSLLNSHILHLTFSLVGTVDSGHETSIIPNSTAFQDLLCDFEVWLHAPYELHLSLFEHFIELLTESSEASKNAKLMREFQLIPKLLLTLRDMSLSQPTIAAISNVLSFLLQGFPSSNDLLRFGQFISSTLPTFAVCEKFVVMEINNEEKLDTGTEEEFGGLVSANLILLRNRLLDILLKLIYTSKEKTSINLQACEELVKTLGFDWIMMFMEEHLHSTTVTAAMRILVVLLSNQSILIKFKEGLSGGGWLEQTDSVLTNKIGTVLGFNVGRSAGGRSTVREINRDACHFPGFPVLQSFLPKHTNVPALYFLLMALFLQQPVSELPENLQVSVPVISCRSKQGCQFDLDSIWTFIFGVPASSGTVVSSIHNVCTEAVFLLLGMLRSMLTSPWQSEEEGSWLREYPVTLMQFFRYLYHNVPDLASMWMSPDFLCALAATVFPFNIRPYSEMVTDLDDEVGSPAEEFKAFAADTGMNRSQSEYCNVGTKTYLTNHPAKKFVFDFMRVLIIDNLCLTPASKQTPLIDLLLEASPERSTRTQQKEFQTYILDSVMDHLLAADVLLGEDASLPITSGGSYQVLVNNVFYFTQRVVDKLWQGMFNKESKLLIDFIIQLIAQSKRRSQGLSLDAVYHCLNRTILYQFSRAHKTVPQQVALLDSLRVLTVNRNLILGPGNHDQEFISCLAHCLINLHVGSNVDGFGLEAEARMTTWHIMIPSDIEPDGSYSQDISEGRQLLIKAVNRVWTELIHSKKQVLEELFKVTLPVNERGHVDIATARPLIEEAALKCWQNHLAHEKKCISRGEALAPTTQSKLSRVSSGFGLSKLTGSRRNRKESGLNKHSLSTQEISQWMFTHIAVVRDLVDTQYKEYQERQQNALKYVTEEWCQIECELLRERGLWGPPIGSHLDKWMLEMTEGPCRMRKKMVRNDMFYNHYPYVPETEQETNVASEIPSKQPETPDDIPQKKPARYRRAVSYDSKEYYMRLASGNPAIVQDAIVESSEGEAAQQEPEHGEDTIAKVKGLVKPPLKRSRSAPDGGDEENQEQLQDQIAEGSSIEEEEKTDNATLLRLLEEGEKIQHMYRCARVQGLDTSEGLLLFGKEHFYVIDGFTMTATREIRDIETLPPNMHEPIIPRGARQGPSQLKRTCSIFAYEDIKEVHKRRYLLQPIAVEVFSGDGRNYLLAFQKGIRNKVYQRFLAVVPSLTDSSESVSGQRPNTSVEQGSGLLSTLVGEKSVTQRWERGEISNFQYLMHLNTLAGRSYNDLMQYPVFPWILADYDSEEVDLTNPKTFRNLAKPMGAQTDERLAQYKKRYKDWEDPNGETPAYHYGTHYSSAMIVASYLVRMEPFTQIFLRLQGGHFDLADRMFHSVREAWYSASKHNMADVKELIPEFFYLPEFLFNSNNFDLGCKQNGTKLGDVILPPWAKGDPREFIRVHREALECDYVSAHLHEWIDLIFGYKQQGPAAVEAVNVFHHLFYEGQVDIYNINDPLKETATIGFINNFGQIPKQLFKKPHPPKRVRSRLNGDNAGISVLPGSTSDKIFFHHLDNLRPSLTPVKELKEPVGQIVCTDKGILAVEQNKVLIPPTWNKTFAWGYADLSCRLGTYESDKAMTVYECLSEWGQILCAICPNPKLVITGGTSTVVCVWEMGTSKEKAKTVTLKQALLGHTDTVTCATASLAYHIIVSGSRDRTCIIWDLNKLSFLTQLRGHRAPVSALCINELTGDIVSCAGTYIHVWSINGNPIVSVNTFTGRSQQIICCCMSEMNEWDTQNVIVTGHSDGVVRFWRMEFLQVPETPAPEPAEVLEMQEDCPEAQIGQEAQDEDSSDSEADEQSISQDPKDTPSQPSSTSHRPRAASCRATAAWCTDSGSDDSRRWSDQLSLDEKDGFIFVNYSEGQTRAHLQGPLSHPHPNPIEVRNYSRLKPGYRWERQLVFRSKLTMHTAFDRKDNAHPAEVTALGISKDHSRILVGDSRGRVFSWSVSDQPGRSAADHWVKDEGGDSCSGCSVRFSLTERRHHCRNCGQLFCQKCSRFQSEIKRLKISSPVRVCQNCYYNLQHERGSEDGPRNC
row,effect of a mutation on the interaction,Variant
1,disrupting interaction,K771T
